Biological target: myelin basic protein peptide on HLA-DRB1*15:01 (human)
Assay: estimate stated in the description; not measured in this filing

Substance: Ob.1A12
- Kd: > 100 µM
